{
  "source": "patent US20200010567A1",
  "about": "(NEURIMMUNE, published 2020)",
  "key": {"(GP)15: H-C(GP)15-OH": {"molecular_target": "T1, (GP)15: H-C(GP)15-OH", "T1 construct": "synthetic, not coupled to BSA; also called poly-GP DPR protein peptide", "T1 peptide": "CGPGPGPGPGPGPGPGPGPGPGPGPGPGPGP", "test": "indirect ELISA, uncoupled peptide coated, antibody titrated [also D00014 FIG. 3G]", "description": "(§1) In brief, dipeptide repeat proteins were synthesized and purified by Schafer-N(Copenhagen, Denmark): (GA)₁₅: H-CHHHHHH(GA)₁₅-OH; (GP)₁₅: H-C(GP)₁₅-OH; (GR)₁₅: H-C(GR)₁₅-OH; (PA)₁₅: H-C(PA)₁₅-OH; (PR)₁₅: H—C(PR)₁₅-OH. DPR protein peptides were then conjugated via a bifunctional linker (SMCC) to bovine serum albumin (BSA). 96-well microplates (Corning Incorporated, Corning, USA) were coated with BSA-coupled or -uncoupled dipeptide repeat protein peptides at a concentration of either 5 μg/ml or 20 μg/ml in coating buffer (15 mM Na₂CO₃, 35 mM NaHCO₃, pH 9.42). Non-specific binding sites were blocked for 1 h at room temperature with PBS/0.1% Tween®-20 containing 2% BSA (Sigma-Aldrich, Buchs, Switzerland). Primary antibodies were diluted to the indicated concentrations and incubated 1 h at room temperature, followed by incubation with a donkey anti-human IgG Fcγ-specific antibody conjugated with HRP (Jackson ImmunoResearch Laboratories, Inc., West Grove, USA). Binding was determined by measurement of HRP activity in a standard colorimetric assay. EC₅₀ values were estimated by non-linear regression using GraphPad Prism software (San Diego, USA)."}, "GR3: H-(GR)3HHHHHH-NH2": {"molecular_target": "T2, GR3: H-(GR)3HHHHHH-NH2", "T2 peptide": "H-GRGRGRHHHHHH-NH2", "test": "indirect ELISA, coated His-tagged peptide", "procedure,_shortened": "(§2)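 Antibodies at graded concentrations bound for 1 h at room temperature to wells carrying 50 μg/ml His-tagged repeat peptide (pH 9.42 carbonate coating, 2% BSA block). Bound IgG read colorimetrically via HRP anti-human Fcγ; EC₅₀ estimated by non-linear regression.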"}, "GR10: H-(GR)10HHHHHH-NH2": {"molecular_target": "T3, GR10: H-(GR)10HHHHHH-NH2 (C-terminal amide)", "T3 peptide": "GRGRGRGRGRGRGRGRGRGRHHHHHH", "test": "indirect ELISA, coated His-tagged peptide", "procedure,_shortened": "as §2"}, "GR6: H-(GR)6HHHHHH-NH2": {"molecular_target": "T4, GR6: H-(GR)6HHHHHH-NH2", "T4 peptide": "H-GRGRGRGRGRGRHHHHHH-NH2", "test": "indirect ELISA, coated His-tagged peptide", "procedure,_shortened": "as §2"}, "(PR)15: H-C(PR)15-OH": {"molecular_target": "T5, (PR)15: H-C(PR)15-OH", "T5 construct": "synthetic, not coupled to BSA; also called poly-PR DPR protein peptide", "T5 peptide": "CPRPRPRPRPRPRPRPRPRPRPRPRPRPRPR", "test": "indirect ELISA, uncoupled peptide coated, antibody titrated [also D00013 FIG. 3F]", "description": "as §1"}, "PR20: H-(PR)20HHHHHH-NH2": {"molecular_target": "T6, PR20: H-(PR)20HHHHHH-NH2 (C-terminal amide)", "T6 peptide": "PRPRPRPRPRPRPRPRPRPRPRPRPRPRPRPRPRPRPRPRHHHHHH", "test": "indirect ELISA, coated His-tagged peptide", "procedure,_shortened": "as §2"}, "PR6: H-(PR)6HHHHHH-NH2": {"molecular_target": "T7, PR6: H-(PR)6HHHHHH-NH2", "T7 peptide": "H-PRPRPRPRPRPRHHHHHH-NH2", "test": "indirect ELISA, coated His-tagged peptide", "procedure,_shortened": "as §2"}, "[1]": {"molecular_target": "T8, BSA-coupled (PA)15 DPR protein peptide (bovine, UniProt P02769 25-607, conjugated via a bifunctional linker (SMCC) to bovine serum albumin)", "T8 construct": "also called BSA-(PA)15", "T8 sequence (peptide, as listed by the source limits assumed, chain 1 of 2)": "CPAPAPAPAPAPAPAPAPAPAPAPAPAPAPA", "T8 sequence (P02769 25-607 limits assumed, chain 2 of 2)": "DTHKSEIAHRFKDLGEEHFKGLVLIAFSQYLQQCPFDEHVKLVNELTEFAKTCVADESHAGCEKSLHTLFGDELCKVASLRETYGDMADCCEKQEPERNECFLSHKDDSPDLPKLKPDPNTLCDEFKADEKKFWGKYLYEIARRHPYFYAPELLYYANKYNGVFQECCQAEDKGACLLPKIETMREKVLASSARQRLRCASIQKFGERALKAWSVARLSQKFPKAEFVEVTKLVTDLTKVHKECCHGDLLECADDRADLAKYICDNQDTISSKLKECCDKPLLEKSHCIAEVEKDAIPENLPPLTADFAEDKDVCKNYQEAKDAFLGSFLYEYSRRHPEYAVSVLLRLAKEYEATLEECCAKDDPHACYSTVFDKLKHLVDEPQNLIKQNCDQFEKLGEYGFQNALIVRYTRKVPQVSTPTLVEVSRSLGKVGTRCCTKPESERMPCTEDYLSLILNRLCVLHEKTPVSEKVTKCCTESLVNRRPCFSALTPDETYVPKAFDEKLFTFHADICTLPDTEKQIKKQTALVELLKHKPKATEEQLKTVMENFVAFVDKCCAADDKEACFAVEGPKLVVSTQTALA", "test": "indirect ELISA, BSA-coupled peptide coated, antibody titrated [also D00015 FIG. 3K]", "description": "as §1"}, "PA20: H-(PA)20HHHHHH-NH2": {"molecular_target": "T9, PA20: H-(PA)20HHHHHH-NH2 (C-terminal amide)", "T9 peptide": "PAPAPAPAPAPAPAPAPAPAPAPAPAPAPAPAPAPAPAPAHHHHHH", "test": "indirect ELISA, coated His-tagged peptide", "procedure,_shortened": "as §2"}, "PA6: H-(PA)6HHHHHH-NH2": {"molecular_target": "T10, PA6: H-(PA)6HHHHHH-NH2", "T10 peptide": "H-PAPAPAPAPAPAHHHHHH-NH2", "test": "indirect ELISA, coated His-tagged peptide", "procedure,_shortened": "as §2"}, "GP10: H-(GP)10HHHHHH-NH2": {"molecular_target": "T11, GP10: H-(GP)10HHHHHH-NH2 (C-terminal amide)", "T11 peptide": "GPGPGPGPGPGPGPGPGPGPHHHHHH", "test": "indirect ELISA, coated His-tagged peptide", "procedure,_shortened": "as §2"}, "[2]": {"molecular_target": "T12, (GA)15: H-CHHHHHH(GA)15-OH", "T12 construct": "synthetic, not coupled to BSA; also called poly-GA DPR protein peptide", "T12 peptide": "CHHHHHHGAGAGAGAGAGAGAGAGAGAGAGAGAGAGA", "test": "indirect ELISA, uncoupled peptide coated, antibody titrated [also D00013 FIG. 3E]", "description": "as §1"}},
  "data": [
    {"binder": "NI-308.5G2 (antibody, V domains shown, Recombinant complete human IgG1, kappa) VH: EVQLVQSGADLRNPGASVTVSCTASGYHFADNAINWLRQAPGQRLEWMGWINIYSGNTKYSQNFQGRVTFTRNTSASTAFMHLRSLRSEDTAVYFCARDPDSSGYYLPYFDYWGQGTLVTVSS VL: DIQLTQSPDSLTLSLGERATINCKSSQSVFYNSNNKNYLAWYQQKPGQPPKLLMYWASTRESGVTDRFSGSGSGTDFTLTITNLQAEDVAVYYCQQFYSSPLTFGGGTKVEIK", "values": [
      {"measurement": "EC50", "setting": "(GP)15: H-C(GP)15-OH", "result": 0.4, "unit": "nM"}
    ]},
    {"binder": "NI-308.6B11 (antibody, V domains shown, Recombinant complete human IgG1, kappa) VH: EVQLVQSGAEVKRPGASVKVSCKVSGYTLTELSMHWVRQAPGKGLEWMGGFDPEDGETVYAQKFQGRVTMTEDTSTDTAYMELSSLRSEDTALYHCATYGSSWHWNEGNEGSYYFDYWGQGTLVTVSS VL: CDIQMTQSPSSLSASVGDRVTITCQASQDISIYLNWYQQKPGKAPKLLIYDASNLETGVPSRFSGSGSGTDFTFTISGLQPEDVARYYCQQYDDLPITFGQGTRLEIK", "values": [
      {"measurement": "EC50", "setting": "GR3: H-(GR)3HHHHHH-NH2", "result": 14.3, "unit": "nM"},
      {"measurement": "EC50", "setting": "GR10: H-(GR)10HHHHHH-NH2", "result": 1.3, "unit": "nM"},
      {"measurement": "EC50", "setting": "GR6: H-(GR)6HHHHHH-NH2", "result": 0.33, "unit": "nM"}
    ]},
    {"binder": "NI-308.24E11 (antibody, V domains shown, Recombinant complete human IgG1, kappa) VH: QVQLQESGPGLVKPSETLSLTCTVSTTSLRSYFWSWIRQPPGKGLEWIGYVYYSGSTIYNPSLKNRVTISIDTSKNQFSLNLRSVTAADTAMYFCARGVPAETDARDFPPYYFDHWGQGTLVTVSS VL: CDIQLTQSPSSLSASVGNRITFTCQASQDIRYYLNWYQQKPGKAPKLLIYDVSNLDTGVPPRFSGSGSGTNFTFTISSLQPEDIAVYYCQQYEGLPVTFGGGTKVEIK", "values": [
      {"measurement": "EC50", "setting": "(PR)15: H-C(PR)15-OH", "result": 11.3, "unit": "nM"},
      {"measurement": "EC50", "setting": "PR20: H-(PR)20HHHHHH-NH2", "result": 11.3, "unit": "nM"},
      {"measurement": "EC50", "setting": "PR6: H-(PR)6HHHHHH-NH2", "result": "> 200", "unit": "nM"}
    ]},
    {"binder": "NI-308.4M1 (antibody, V domains shown, Recombinant complete human IgG1, kappa) VH: EVQLVETGGGVVQPGGSLRLSCEASGFTIGTYAMHWVRQFPGKGLDWVAVISFDGTTEYYTDAVKGRFTISRDNAKNTLYLQMNYLRGDDTAIYFCARDFTSSGETGSWTQVPDLWGQGTLVTVSS VL: CEIVMTQSPATLSLSPGERATLSCRASQSVTKYLAWYQQKPGQAPRLLIYDVSYRAAGTPARFSGSGSGTDFTLTISSLEPEDFAVYYCHQRSSWPPVTFGGGTKVEIK", "values": [
      {"measurement": "EC50", "setting": "[1]", "result": 0.14, "unit": "nM"},
      {"measurement": "EC50", "setting": "PA20: H-(PA)20HHHHHH-NH2", "result": 0.06, "unit": "nM"},
      {"measurement": "EC50", "setting": "PA6: H-(PA)6HHHHHH-NH2", "result": 4.3, "unit": "nM"}
    ]},
    {"binder": "NI-308.46E9 (antibody, V domains shown, Recombinant complete human IgG1, kappa) VH: QVQLQESGPGLVKPSETLSLTCTVSGASISGSTYYWGWIRQPPGKGLEYIGRIYYSGSTYYNPSLKSRATISVDTSKNQLSLTLSSVTAADTAVYYCVRPFYAGSGNSPFDYWGQGTLVTVSS VL: CEIVLTQSPATVSVSPGERATLSCRASQSVSTNLAWYQQKPGQPPRLLIYGASTRATGIPARFSGSGSGAEFTLTISSLQSEDFVVYYCQQYNNWPPAFGGGTKVEIK", "values": [
      {"measurement": "EC50", "setting": "GP10: H-(GP)10HHHHHH-NH2", "result": 63.3, "unit": "nM"}
    ]},
    {"binder": "NI-308.45C2 (antibody, V domains shown, Recombinant complete human IgG1, kappa) VH: QLQLQESGPGLVKPSQILSLTCAISGDSVFSNSAAWNWIRQSPSRGLEWLGRTYYRSKWDNDYAPSVKSRISINPDTSKNQFSLQLNSVTPEDTAVYYCAREVAYCGGDCYSVSFDYWGQGTLVTVSS VL: not shown", "values": [
      {"measurement": "EC50", "setting": "[2]", "result": 1.1, "unit": "nM"}
    ]}
  ]
}
